Molecular target: tripartite motif containing 28 (TRIM28) (human (endogenous in HeLa)) (UniProt Q13263)
Sequence (Q13263 whole entry): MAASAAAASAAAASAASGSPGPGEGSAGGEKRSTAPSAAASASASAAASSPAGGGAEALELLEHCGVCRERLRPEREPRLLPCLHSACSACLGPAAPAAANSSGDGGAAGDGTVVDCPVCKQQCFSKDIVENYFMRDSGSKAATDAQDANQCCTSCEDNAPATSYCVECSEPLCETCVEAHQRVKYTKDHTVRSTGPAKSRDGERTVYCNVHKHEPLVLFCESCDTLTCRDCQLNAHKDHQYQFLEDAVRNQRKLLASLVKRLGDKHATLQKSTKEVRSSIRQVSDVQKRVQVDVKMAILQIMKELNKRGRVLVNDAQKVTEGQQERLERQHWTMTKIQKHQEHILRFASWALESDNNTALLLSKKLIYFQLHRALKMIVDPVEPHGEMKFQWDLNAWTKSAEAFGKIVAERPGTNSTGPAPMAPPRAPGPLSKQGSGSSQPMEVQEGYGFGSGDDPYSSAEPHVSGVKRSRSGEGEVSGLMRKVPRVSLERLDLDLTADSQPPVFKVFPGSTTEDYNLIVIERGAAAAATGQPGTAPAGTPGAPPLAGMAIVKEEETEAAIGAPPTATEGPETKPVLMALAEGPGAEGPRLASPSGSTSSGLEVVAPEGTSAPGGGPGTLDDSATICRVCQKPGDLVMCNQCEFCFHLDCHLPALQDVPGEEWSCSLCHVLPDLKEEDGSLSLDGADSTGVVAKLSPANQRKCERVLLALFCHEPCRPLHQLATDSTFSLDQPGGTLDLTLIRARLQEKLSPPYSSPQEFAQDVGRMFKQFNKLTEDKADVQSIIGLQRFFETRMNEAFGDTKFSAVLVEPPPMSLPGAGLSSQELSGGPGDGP

transcriptional repression factor over Gal4-DBD alone, dual luciferase reporter assay in HeLa cells (KRAB domain as Gal4-DBD fusion): 0.9 fold
Substance: GST fusion of wild-type PRDM9 aKRAB-A with ZNF10-B (domain or fragment)
